Assay results from the supplement of paper PMC11246515.
± gives the standard deviation of the averaged measurements.

Test: total protein half-life in vivo (active degradation + dilution); higher = more stable protein
[1] = E. coli NCM3722 delta-hslV, growth: N-lim chemostat, doubling time 6 h
[2] = E. coli NCM3722 delta-lon, growth: N-lim chemostat, doubling time 6 h
[3] = E. coli NCM3722 delta-smpB, growth: N-lim chemostat, doubling time 6 h
[4] = wild type E. coli NCM3722, growth: C-lim chemostat, doubling time 3 h
[5] = wild type E. coli NCM3722, growth: C-lim chemostat, doubling time 6 h
[6] = wild type E. coli NCM3722, growth: C-lim chemostat, doubling time 12 h
[7] = wild type E. coli NCM3722, growth: N-lim chemostat, doubling time 12 h
[8] = wild type E. coli NCM3722, growth: P-lim chemostat, doubling time 6 h
[9] = wild type E. coli NCM3722, growth: P-lim chemostat, doubling time 12 h
[10] = E. coli NCM3722 delta-clpP delta-lon delta-hslV, growth: N-lim chemostat, doubling time 6 h
[11] = E. coli NCM3722 delta-clpP, growth: N-lim chemostat, doubling time 6 h
[12] = wild type E. coli NCM3722, growth: N-lim chemostat, doubling time 6 h

Sequence	total protein half-life in vivo [1] [h]	total protein half-life in vivo [2] [h]	total protein half-life in vivo [3] [h]	total protein half-life in vivo [4] [h]	total protein half-life in vivo [5] [h]	total protein half-life in vivo [6] [h]	total protein half-life in vivo [7] [h]	total protein half-life in vivo [8] [h]	total protein half-life in vivo [9] [h]	total protein half-life in vivo [10] [h]	total protein half-life in vivo [11] [h]	total protein half-life in vivo [12] [h]
MQTQLTEEMRQNARALEADSILRACVHCGFCTATCPTYQLLGDELDGPRGRIYLIKQVLEGNEVTLKTQEHLDRCLTCRNCETTCPSGVRYHNLLDIGRDIVEQKVKRPLPERILREGLRQVVPRPAVFRALTQVGLVLRPFLPEQVRAKLPAETVKAKPRPPLRHKRRVLMLEGCAQPTLSPNTNAATARVLDRLGISVMPANEAGCCGAVDYHLNAQEKGLARARNNIDAWWPAIEAGAEAILQTASGCGAFVKEYGQMLKNDALYADKARQVSELAVDLVELLREEPLEKLAIRGDKKLAFHCPCTLQHAQKLNGEVEKVLLRLGFTLTDVPDSHLCCGSAGTYALTHPDLARQLRDNKMNALESGKPEMIVTANIGCQTHLASAGRTSVRHWIEIVEQALEKE	1.54	2.63 ± 0.16	1.29 ± 0.16	1.33 ± 0.28	2.42 ± 0.12	4.17 ± 0.18	2.2136 ± 0.00075	2.14	4.65 ± 0.33			
MQTTQQNAPLKRTMKTRHLIMLSLGGVIGTGLFFNTGYIISTTGAAGTLLAYLIGALVVWLVMQCLGELSVAMPETGAFHVYAARYLGPATGYTVAWLYWLTWTVALGSSFTAAGFCMQYWFPQVPVWVWCVVFCAIIFGLNVISTRFFAEGEFWFSLVKVVTIIAFIILGGAAIFGFIPMQDGSPAPGLSNITAEGWFPHGGLPILMTMVAVNFAFSGTELIGIAAGETENPRKVIPVAIRTTIARLIIFFIGTVFVLAALIPMQQVGVEKSPFVLVFEKVGIPYAADIFNFVILTAILSAANSGLYASGRMLWSLSNERTLPACFARVTKNGVPLTALSVSMLGGVLALFSSVVAPDTVFVALSAISGFAVVAVWLSICASHFVFRRRHLQQGKALSELHYRAPWYPLVPVLGFVLCLVACVGLAFDPAQRIALWCGLPFVALCYGAYFLTQPRNAKQEPEHVAE	3.13		2.51 ± 0.28	3.05 ± 0.71	4.13 ± 0.25	7.02 ± 0.5		3.63 ± 0.43	7.23	3.09 ± 0.25	1.78	3.79
MQTVIFGRSGCPYCVRAKDLAEKLSNERDDFQYQYVDIRAEGITKEDLQQKAGKPVETVPQIFVDQQHIGGYTDFAAWVKENLDA	3.72	4.75 ± 0.46	3.33	2.14	4.99	6.22	5.49	4.16	7.26 ± 0.75	5.87	3.94	3.39
MQVDLLGSAQSAHALHLFHQHSPLVHCMTNDVVQTFTANTLLALGASPAMVIETEEASQFAAIASALLINVGTLTQPRAQAMRAAVEQAKSSQTPWTLDPVAVGALDYRRHFCHELLSFKPAAIRGNASEIMALAGIANGGRGVDTTDAAANAIPAAQTLARETGAIVVVTGEMDYVTDGHRIIGIHGGDPLMTKVVGTGCALSAVVAACCALPGDTLENVASACHWMKQAGERAVARSEGPGSFVPHFLDALWQLTQEVQA	3.27 ± 0.13	3.94	3.42 ± 0.044	3.01 ± 0.68	4.89 ± 1.2	8.48 ± 1	5.17 ± 0.24	5.64 ± 0.14	10.3 ± 0.67	4.08 ± 0.34	3.41 ± 0.17	3.4 ± 0.41
MQVFIMRHGDAALDAASDSVRPLTTNGCDESRLMANWLKGQKVEIERVLVSPFLRAEQTLEEVGDCLNLPSSAEVLPELTPCGDVGLVSAYLQALTNEGVASVLVISHLPLVGYLVAELCPGETPPMFTTSAIASVTLDESGNGTFNWQMSPCNLKMAKAI	0.943 ± 0.06	0.853 ± 0.11	1.03 ± 0.01	1.06 ± 0.013	1.35 ± 0.12	1.57 ± 0.41	1.5 ± 0.33	1.25 ± 0.38	2.5 ± 0.88	4.59 ± 0.56	4.209 ± 0.026	1.13 ± 0.12
MQYPINEMFQTLQGEGYFTGVPAIFIRLQGCPVGCAWCDTKHTWEKLEDREVSLFSILAKTKESDKWGAASSEDLLAVIGRQGYTARHVVITGGEPCIHDLLPLTDLLEKNGFSCQIETSGTHEVRCTPNTWVTVSPKLNMRGGYEVLSQALERANEIKHPVGRVRDIEALDELLATLTDDKPRVIALQPISQKDDATRLCIETCIARNWRLSMQTHKYLNIA	3.81 ± 0.46	4.5 ± 0.086	3.79 ± 0.57	2.309 ± 0.014	4.33 ± 0.17	6.66 ± 0.86	6.06 ± 0.13	4.61 ± 0.56	7.47 ± 0.8	4.61 ± 0.46	3.94	3.7 ± 0.29
MRACINNQQIRHHNKCVILELLYRQKRANKSTLARLAQISIPAVSNILQELESEKRVVNIDDESQTRGHSSGTWLIAPEGDWTLCLNVTPTSIECQVANACLSPKGEFEYLQIDAPTPQALLSEIEKCWHRHRKLWPDHTINLALAIHGQVDPVTGVSQTMPQAPWTTPVEVKYLLEEKLGIRVMVDNDCVMLALAEKWQNNSQERDFCVINVDYGIGSSFVINEQIYRGSLYGSGQIGHTIVNPDGVVCDCGRYGCLETVASLSALKKQARVWLKSQPVSTQLDPEKLTTAQLIAAWQSGEPWITSWVDRSANAIGLSLYNFLNILNINQIWLYGRSCAFGENWLNTIIRQTGFNPFDRDEGPSVKATQIGFGQLSRAQQVLGIGYLYVEAQLRQI	5.18 ± 0.99	5.81 ± 0.79	3.95 ± 0.094	> 4	1.97	3	7.97	3.12	4.85	6.39 ± 0.56	6.61	5.48 ± 0.83
MRALLPYLALYKRHKWMLSLGIVLAIVTLLASIGLLTLSGWFLSASAVAGVAGLYSFNYMLPAAGVRGAAITRTAGRYFERLVSHDATFRVLQHLRIYTFSKLLPLSPAGLARYRQGELLNRVVADVDTLDHLYLRVISPLVGAFVVIMVVTIGLSFLDFTLAFTLGGIMLLTLFLMPPLFYRAGKSTGQNLTHLRGQYRQQLTAWLQGQAELTIFGASDRYRTQLENTEIQWLEAQRRQSELTALSQAIMLLIGALAVILMLWMASGGVGGNAQPGALIALFVFCALAAFEALAPVTGAFQHLGQVIASAVRISDLTDQKPEVTFPDTQTRVADRVSLTLRDVQFTYPEQSQQALKGISLQVNAGEHIAILGRTGCGKSTLLQQLTRAWDPQQGEILLNDSPIASLNEAALRQTISVVPQRVHLFSATLRDNLLLASPGSSDEALSEILRRVGLEKLLEDAGLNSWLGEGGRQLSGGELRRLAIARALLHDAPLVLLDEPTEGLDATTESQILELLAEMMREKTVLMVTHRLRGLSRFQQIIVMDNGQIIEQGTHAELLARQGRYYQFKQGL	6.08 ± 0.081	6.01 ± 0.34	5.928 ± 0.023	3.08 ± 0.092	5.92 ± 0.12		11.7 ± 0.28	6.274 ± 0.058	12.3 ± 1.1	> 8	6.58 ± 0.21	5.99 ± 0.31
MRDIQMVLERWGAWAANNHEDVTWSSIAAGFKGLITSKVKSRPQCCDDDAMIICGCMARLKKNNSDLHDLLVDYYVVGMTFMSLAGKHCCSDGYIGKRLQKAEGIIEGMLMALDIRLEMDIVVNNSN						8.73		5.67	10.4 ± 0.22	2.96		
MRFCLILITALLLAGCSHHKAPPPNARLSDSITVIAGLNDQLQSWHGTPYRYGGMTRRGVDCSGFVVVTMRDRFDLQLPRETKQQASIGTQIDKDELLPGDLVFFKTGSGQNGLHVGIYDTNNQFIHASTSKGVMRSSLDNVYWQKNFWQARRI		0.828	1.61 ± 0.18	0.468 ± 0.23	1.4	> 16	4.32	2.28	4.21 ± 0.75		1.22	
MRFVDEYRAPEQVMQLIEHLRERASHLSYTAERPLRIMEVCGGHTHAIFKFGLDQLLPENVEFIHGPGCPVCVLPMGRIDTCVEIASHPEVIFCTFGDAMRVPGKQGSLLQAKARGADVRIVYSPMDALKLAQENPTRKVVFFGLGFETTMPTTAITLQQAKARDVQNFYFFCQHITLIPTLRSLLEQPDNGIDAFLAPGHVSMVIGTDAYNFIASDFHRPLVVAGFEPLDLLQGVVMLVQQKIAAHSKVENQYRRVVPDAGNLLAQQAIADVFCVNGDSEWRGLGVIESSGVHLTPDYQRFDAEAHFRPAPQQVCDDPRARCGEVLTGKCKPHQCPLFGNTCNPQTAFGALMVSSEGACAAWYQYRQQESEA	2.4	2.92 ± 0.14		2.32 ± 0.034	3.94 ± 0.33	5.53 ± 0.43	2.79	3.08	5.78	5.73	3.17 ± 0.086	2.2
MRGKKRIGLLFLLIAVVVGGGGLLLAQKVLHKTSDTAFCLSCHSMSKPFEEYQGTVHFSNQKGIRAECADCHIPKSGMDYLFAKLKASKDIYHEFVSGKIDSDDKFEAHRQEMAETVWKELKATDSATCRSCHSFDAMDIASQSESAQKMHNKAQKDSETCIDCHKGIAHFPPEIKMDDNAAHELESQAATSVTNGAHIYPFKTSHIGELATVNPGTDLTVVDASGKQPIVLLQGYQMQGSENTLYLAAGQRLALATLSEEGIKALTVNGEWQADEYGNQWRQASLQGALTDPALADRKPLWQYAEKLDDTYCAGCHAPIAADHYTVNAWPSIAKGMGARTSMSENELDILTRYFQYNAKDITEKQ				2.33	4.09	8.13 ± 1.1						
MRHCGWLLGLLSLFSLATHASDWQEIKNEAKGQTVWFNAWGGDTAINRYLDWVSGEMKTHYAINLKIVRLADAADAVKRIQTEAAAGRKTGGSVDLLWVNGENFRTLKEANLLQTGWAETLPNWRYVDTQLPVREDFSVPTQGAESPWGGAQLTFIARRDVTPQPPQTPQALLEFAKANPGTVTYPRPPDFTGTAFLEQLLIMLTPDPAALKEAPDDATFARVTAPLWQYLDVLHPYLWREGKDFPPSPARMDALLKAGTLRLSLTFNPAHAQQKIASGDLPASSYSFGFREGMIGNVHFVTIPANANASAAAKVVANFLLSPDAQLRKADPAVWGDPSVLDPQKLPDGQRESLQSRMPQDLPPVLAEPHAGWVNALEQEWLHRYGTH	6.22 ± 0.27	6.17 ± 0.65	5.628 ± 0.055	3.45 ± 0.33	6.17 ± 0.22	13.7 ± 0.41	13.4 ± 0.98	6.54 ± 0.45	12.3 ± 1.5	5.63 ± 0.51	6.09 ± 0.099	6.027 ± 0.021
MRHLRNIFNLGIKELRSLLGDKAMLTLIVFSFTVSVYSSATVTPGSLNLAPIAIADMDQSQLSNRIVNSFYRPWFLPPEMITADEMDAGLDAGRYTFAINIPPNFQRDVLAGRQPDIQVNVDATRMSQAFTGNGYIQNIINGEVNSFVARYRDNSEPLVSLETRMRFNPNLDPAWFGGVMAIINNITMLAIVLTGSALIREREHGTVEHLLVMPITPFEIMMAKIWSMGLVVLVVSGLSLVLMVKGVLGVPIEGSIPLFMLGVALSLFATTSIGIFMGTIARSMPQLGLLVILVLLPLQMLSGGSTPRESMPQMVQDIMLTMPTTHFVSLAQAILYRGAGFEIVWPQFLTLMAIGGAFFTIALLRFRKTIGTMA [P0AGH1]	7.18 ± 0.3		6.13 ± 0.76	3.9	7.01	12.2	10.5	7.25 ± 0.75	11.7 ± 0.4			5.76 ± 0.3
MRHPLVMGNWKLNGSRHMVHELVSNLRKELAGVAGCAVAIAPPEMYIDMAKREAEGSHIMLGAQNVDLNLSGAFTGETSAAMLKDIGAQYIIIGHSERRTYHKESDELIAKKFAVLKEQGLTPVLCIGETEAENEAGKTEEVCARQIDAVLKTQGAAAFEGAVIAYEPVWAIGTGKSATPAQAQAVHKFIRDHIAKVDANIAEQVIIQYGGSVNASNAAELFAQPDIDGALVGGASLKADAFAVIVKAAEAAKQA [P0A858]	4.718 ± 0.03	5.61 ± 0.81	4.59 ± 0.26	3.057 ± 0.024	5.92 ± 0.066	10.6 ± 0.24	8.33 ± 0.46	5.79 ± 0.17	13.1 ± 0.81	5.91 ± 0.91	5.22 ± 0.98	4.75 ± 0.24
MRICSDQPCIVLLTEKDVWIRVNGKEPISLKANHMALLNCENNIIDVSSLNNTLVAHISHDIIKDYLRFLNKDLSQIPVWQRSATPILTLPCLTPDVFRVAAQHSMMPAETESEKERTRALLFTVLSRFLDSKKFVSLMMYMLRNCVSDSVYQIIESDIHKDWNLSMVASCLCLSPSLLKKKLKSENTSYSQIITTCRMRYAVNELMMDGKNISQVSQSCGYNSTSYFISVFKDFYGMTPLHYVSQHRERTVA			1.24									
